The source of these data is patent US20260234262A1.

The experiment has as its target Target 2 (canine examples 1 to 4) (canine). Briefly: SPR, Biacore T200; antibody captured on anti-canine coupled CM5 chip, antigen in solution, 1:1 fit.

B1: 02F09R3-Fc (Fc fusion)
chain: QVQLVESGGGLVQAGGSLRLSCVASGSTFSNLVMAWYRQAPGKQREWVARISLAGNTIYADSVKGRFTISRDNAKNTVYLQMNSLKIEDTAVYYCSRGGVDWGQGTQVTVSSGPGGQVPKRENGRVPRPPDCPKCPAPEAAGGPSVFIFPPKPKDTLLIARTPEVTCVVVDLDPEDPEVQISWFVDGKQMQTAKTQPREEQFNGTYRVVSVLPIGHQDWLKGKQFTCKVNNKALPSPIERTISKARGQAHQPSVYVLPPSREELSKNTVSLTCLIKDFFPPDIDVEWQSNGQQEPESKYRTTPPQLDEDGSYFLYSKLSVDKSRWQRGDTFICYVMHEALHNHYTQESLSHSP
modifications: N-terminal pyroglutamate (PyroQ) observed by intact mass
In turn, B1 registered a Kd of 213 pM, an off-rate (koff) of 6.24e-05 s⁻¹ and a kon of 293000 M⁻¹ s⁻¹.
